Source: the supplement of paper PMC9233669
This sample holds only a part of the variants without activity.

How the values were obtained:
[1] = test system: biotinyl-Phe-oxazolone; assay: self-aminoacylation, catalytic enhancement (BFO) (fold over background); higher = more active; k-Seq, kA / k0A0; sequences stand for … in GGGAAUGGAUCCACAUCUACGAAUUC…UUCACUGCAGACUUGACGAAGCUG
Summary of the method: (§1)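 Each biotinyl-aminoacyl-oxazolone, at 2–1250 μM, was incubated with mutagenized RNA pools (0.43 μM) carrying a 21-nt variable region. The 50 μL reactions contained HEPES/NaCl/KCl/MgCl2/CaCl2 buffer with 5% acetonitrile at pH 6.9–7.0 and ran for 90 minutes at room temperature. After streptavidin capture, RNA was measured by qPCR in triplicate and by Illumina sequencing, and catalytic enhancement was calculated as median kA over the uncatalyzed rate from a pseudo-first-order fit of per-sequence fraction reacted.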

[2] = test system: biotinyl-Trp-oxazolone; assay: self-aminoacylation, catalytic enhancement (BWO) (fold over background); higher = more active; k-Seq, kA / k0A0; sequences stand for … in GGGAAUGGAUCCACAUCUACGAAUUC…UUCACUGCAGACUUGACGAAGCUG
Summary of the method: as §1

| Sequence | self-aminoacylation [1] | self-aminoacylation [2] |
| --- | --- | --- |
| AAAUUUGCUAAUAGUCGUAAG [Fam3.1 aminoacylation ribozyme variant] | 10.3 | 4.02 |
| AAGUAUGCUAAUAGUCACAAG [Fam3.1 aminoacylation ribozyme variant] | 9.66 | 3.36 |
| AAGUAUGCUAAUAGUCGCCAG [Fam3.1 aminoacylation ribozyme variant] |  | 3.29 |
| AAGUGUGCUAAUAGUCACAAG [Fam3.1 aminoacylation ribozyme variant] | 6.87 | 3.91 |
| AAGUUGGCUAAUAGUCGCGAG [Fam3.1 aminoacylation ribozyme variant] |  | 3.96 |
| AAGUUUACUAAUUGUCGCAAG [Fam3.1 aminoacylation ribozyme variant] | 2.6 | 2 |
| AAGUUUGCAAAUAGUCGCCAG [Fam3.1 aminoacylation ribozyme variant] | 2.38 | 2.05 |
| AAGUUUGCUAAAAGUCGCCAG [Fam3.1 aminoacylation ribozyme variant] |  | 2.25 |
| AAGUUUGCUAACAGUCGUAAG [Fam3.1 aminoacylation ribozyme variant] | 27.2 | 7.81 |
| AAGUUUGCUAAUAUUCCCAAG [Fam3.1 aminoacylation ribozyme variant] |  | 2.1 |
| AAGUUUGCUAUUAGUCGCGAG [Fam3.1 aminoacylation ribozyme variant] | 4.31 | 2.3 |
| AAGUUUUCUAAAAGUCGCAAG [Fam3.1 aminoacylation ribozyme variant] | 2.92 | 2.01 |
| AAUACCCUGGUCAUCGAGUGC [Fam2.1 aminoacylation ribozyme variant] | 3.36 | 2.03 |
| AAUUUUGCGAAUAGUCGCAAG [Fam3.1 aminoacylation ribozyme variant] |  | 2 |
| AAUUUUGCUAAUAGUCGCAAG [Fam3.1 aminoacylation ribozyme variant] | 5 | 2.43 |
| ACACACUUCAAGGAAUCGGUC [Fam1B.1 aminoacylation ribozyme variant] | 3.08 | 2.96 |
| ACACAGUUCAAGCAAUCGGUC [Fam1B.1 aminoacylation ribozyme variant] | 3.76 | 3.46 |
| ACGCACUUCAAGCAAUCGGUC [Fam1B.1 aminoacylation ribozyme variant] | 33.8 | 19.9 |
| AGGUUUGCUAAUAGUCACAAG [Fam3.1 aminoacylation ribozyme variant] | 9.69 | 2.76 |
| AGGUUUGCUCAUAGUCGCAAG [Fam3.1 aminoacylation ribozyme variant] | 2.95 | 2.45 |
| AUACUUCAAACAAUCGGUCUU [Fam1A.1 aminoacylation ribozyme variant] | 6.84 | 4.01 |
| AUACUUCAACCAAUCGGUCUG [Fam1A.1 aminoacylation ribozyme variant] | 5.09 | 4.18 |
| AUAGUUCAAACAAUCGGUCUG [Fam1A.1 aminoacylation ribozyme variant] | 4.05 | 3.06 |
| AUGUUUGCUAAUAGUCGGAAG [Fam3.1 aminoacylation ribozyme variant] | 5.76 |  |

| Sequence | self-aminoacylation [1] | self-aminoacylation [2] |
| --- | --- | --- |
| AUUACCCUGGCCAUCGAGUAA [Fam2.1 aminoacylation ribozyme variant] | 3.72 | 2.74 |
| AUUACCCUGGCCAUCGUGUGA [Fam2.1 aminoacylation ribozyme variant] | 6.7 |  |
| AUUACCCUGGUCAUCGAGAGG [Fam2.1 aminoacylation ribozyme variant] | 2.47 |  |
| AUUACCCUGGUCAUCGUGUGU [Fam2.1 aminoacylation ribozyme variant] | 2.45 |  |
| AUUACCCUGGUCGUCGUGUGA [Fam2.1 aminoacylation ribozyme variant] | 9.58 |  |
| AUUACCCUGGUGAUCGUGUGA [Fam2.1 aminoacylation ribozyme variant] | 5.71 |  |
| AUUACGCUGCUCAUCGAGUGA [Fam2.1 aminoacylation ribozyme variant] |  | 2.69 |
| AUUAGCCUGGUCGUCGAGUGA [Fam2.1 aminoacylation ribozyme variant] | 7.67 | 2.09 |
| AUUCACCUAGGUCAUCCGGUC [Fam2.2 aminoacylation ribozyme variant] | 4.67 |  |
| AUUCACCUAGGUCAUCCGGUU [Fam2.2 aminoacylation ribozyme variant] | 9.74 |  |
| AUUCACCUAGGUCGUCGUGUG [Fam2.2 aminoacylation ribozyme variant] | 3.62 |  |
| AUUCACCUAGGUCGUCUGGUG [Fam2.2 aminoacylation ribozyme variant] | 5.84 |  |
| AUUCACCUAGGUGAGCGGGUG [Fam2.2 aminoacylation ribozyme variant] | 7.25 |  |
| AUUCACUUAGGUCGUCGGGUG [Fam2.2 aminoacylation ribozyme variant] | 4.92 |  |
| AUUCUCCUAGGUCAUCGGGUC [Fam2.2 aminoacylation ribozyme variant] | 4.09 |  |
| AUUUCCCUGGUCAUCGAGUUA [Fam2.1 aminoacylation ribozyme variant] | 2.12 |  |
| CAACACUUCAAGCAAUCGGAC [Fam1B.1 aminoacylation ribozyme variant] | 2.37 |  |
| CAACUUCAAACAAUCGAUCUG [Fam1A.1 aminoacylation ribozyme variant] | 3.33 |  |
| CAACUUCAAACAAUCGCUCUG [Fam1A.1 aminoacylation ribozyme variant] | 3.06 | 2.41 |
| CAACUUCAAACAAUCGGUCUA [Fam1A.1 aminoacylation ribozyme variant] | 26.4 | 13.9 |
| CAACUUUAAACAAUCGGUCUG [Fam1A.1 aminoacylation ribozyme variant] | 2.09 |  |
| CAGUUUGCUAAUAGUCGCUAG [Fam3.1 aminoacylation ribozyme variant] | 2.2 |  |
| CAGUUUGCUAAUAGUCGUAAG [Fam3.1 aminoacylation ribozyme variant] | 5.91 | 2.28 |
| CAGUUUGCUCAUAGUCGCAAG [Fam3.1 aminoacylation ribozyme variant] | 2.06 |  |

| Sequence | self-aminoacylation [1] | self-aminoacylation [2] |
| --- | --- | --- |
| CCACACUCCAGGCAAUCGGUC [Fam1B.1 aminoacylation ribozyme variant] |  | 2.04 |
| CCACACUUCAAACAAUCGAUC [Fam1B.1 aminoacylation ribozyme variant] | 2.59 |  |
| CCACACUUCAAGAAAUCGGUU [Fam1B.1 aminoacylation ribozyme variant] |  | 2.03 |
| CCACACUUCAGGCAAUCCGUC [Fam1B.1 aminoacylation ribozyme variant] | 2.08 |  |
| CCACAUUUCAAGAAAUCGGUC [Fam1B.1 aminoacylation ribozyme variant] | 2.09 |  |
| CCACAUUUCAAGCAAUCGGUC [Fam1B.1 aminoacylation ribozyme variant] | 3.26 |  |
| CCACGCAUCAAGCAAUCGGUC [Fam1B.1 aminoacylation ribozyme variant] | 3.83 |  |
| CGACACUUCAGGCAAUCGGUC [Fam1B.1 aminoacylation ribozyme variant] | 2.04 |  |
| CUACAUCAAACAAUGGGUCUG [Fam1A.1 aminoacylation ribozyme variant] | 2.95 |  |
| CUACUGCAAACAGUCGGUCUG [Fam1A.1 aminoacylation ribozyme variant] | 2.04 |  |
| CUACUGCAAUCAAUCGGUCUG [Fam1A.1 aminoacylation ribozyme variant] | 2.9 |  |
| CUACUUCAAAAACUCGGUCUG [Fam1A.1 aminoacylation ribozyme variant] | 2.19 |  |
| CUACUUCAAACACUCGGUCGG [Fam1A.1 aminoacylation ribozyme variant] | 5.02 |  |
| CUACUUCAGACAAUCGGGCUG [Fam1A.1 aminoacylation ribozyme variant] | 3.52 |  |
| CUACUUCCAACGAUCGGUCUG [Fam1A.1 aminoacylation ribozyme variant] | 3.05 |  |
| CUAGUUCAAACAAUCGGUAUG [Fam1A.1 aminoacylation ribozyme variant] | 3.27 |  |
| CUCCUUCAAACAGUCGGUCUG [Fam1A.1 aminoacylation ribozyme variant] | 3.98 |  |
| CUGCUUCAAACAAUCCGUCUG [Fam1A.1 aminoacylation ribozyme variant] | 2.71 |  |
| GAGUUUGCUAAUAGUAGCAAG [Fam3.1 aminoacylation ribozyme variant] | 3.32 |  |
| GCACACUUCAAGCAAACGGUC [Fam1B.1 aminoacylation ribozyme variant] | 2.05 |  |
| GUACGUCAAACAAUCGGUCUG [Fam1A.1 aminoacylation ribozyme variant] |  | 2.71 |
| GUACUGCAAACAAUCGGUCUG [Fam1A.1 aminoacylation ribozyme variant] | 3.7 |  |
| GUACUUCGAACAAUCGGUCUG [Fam1A.1 aminoacylation ribozyme variant] | 5.74 |  |
